Experimental data from US20240124607A1 (Merck Sharp & Dohme, published 2024).
Changes are numbered by the printed parent chain.

T1: Human CEACAM5 (E398) (human, UniProt P06731 35-685, limits assumed)
T1 construct: also called hCEACAM5
T1 sequence: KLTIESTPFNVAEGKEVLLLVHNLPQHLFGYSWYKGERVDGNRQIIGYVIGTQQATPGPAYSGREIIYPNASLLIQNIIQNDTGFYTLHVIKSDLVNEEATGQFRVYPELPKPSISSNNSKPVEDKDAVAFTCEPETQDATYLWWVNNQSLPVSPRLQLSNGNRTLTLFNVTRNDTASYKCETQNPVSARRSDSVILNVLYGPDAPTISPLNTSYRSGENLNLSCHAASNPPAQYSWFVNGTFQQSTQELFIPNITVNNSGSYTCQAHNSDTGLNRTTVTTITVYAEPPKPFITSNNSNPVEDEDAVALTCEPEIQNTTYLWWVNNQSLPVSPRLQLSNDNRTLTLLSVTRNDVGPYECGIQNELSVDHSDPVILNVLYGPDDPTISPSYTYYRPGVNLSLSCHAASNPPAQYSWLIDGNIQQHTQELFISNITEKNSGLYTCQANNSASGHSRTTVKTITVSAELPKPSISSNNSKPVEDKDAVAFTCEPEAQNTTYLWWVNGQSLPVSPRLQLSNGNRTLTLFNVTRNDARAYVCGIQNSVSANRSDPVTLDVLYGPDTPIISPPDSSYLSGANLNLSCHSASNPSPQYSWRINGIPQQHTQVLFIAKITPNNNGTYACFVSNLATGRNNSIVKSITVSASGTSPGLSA

T2: Human CEACAM5 I112V (human, UniProt P06731 35-685, limits assumed)
T2 sequence: T1 sequence with I78V

T3: human CEACAM5 on cells (human, UniProt P06731 35-685)
T3 construct: tumour cell lines with endogenous CEACAM5, or B16F10 engineered to express hCEACAM5; also called CEACAM5 on MKN-45, HPAF-II, SK-CO-1, LoVo, BxPC-3, Kato-III, LS-174T, ZR-75-30; hCEACAM5-B16F10
T3 sequence: T1 sequence

T4: human CEACAM8 on Ba/F3 cells (human, UniProt P31997 35-320)
T4 construct: whole, on cells
T4 sequence (looked up): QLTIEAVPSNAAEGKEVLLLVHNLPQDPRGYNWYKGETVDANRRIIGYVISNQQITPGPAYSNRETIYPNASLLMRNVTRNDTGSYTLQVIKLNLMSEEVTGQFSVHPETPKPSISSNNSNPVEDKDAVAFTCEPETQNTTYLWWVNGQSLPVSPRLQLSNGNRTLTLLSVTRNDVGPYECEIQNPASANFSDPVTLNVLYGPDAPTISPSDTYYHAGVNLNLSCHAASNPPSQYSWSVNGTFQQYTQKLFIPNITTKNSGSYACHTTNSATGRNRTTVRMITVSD

B1: AB0466 F3' CEACAM5 TriNKET (bispecific antibody, human IgG1, kappa)
chain: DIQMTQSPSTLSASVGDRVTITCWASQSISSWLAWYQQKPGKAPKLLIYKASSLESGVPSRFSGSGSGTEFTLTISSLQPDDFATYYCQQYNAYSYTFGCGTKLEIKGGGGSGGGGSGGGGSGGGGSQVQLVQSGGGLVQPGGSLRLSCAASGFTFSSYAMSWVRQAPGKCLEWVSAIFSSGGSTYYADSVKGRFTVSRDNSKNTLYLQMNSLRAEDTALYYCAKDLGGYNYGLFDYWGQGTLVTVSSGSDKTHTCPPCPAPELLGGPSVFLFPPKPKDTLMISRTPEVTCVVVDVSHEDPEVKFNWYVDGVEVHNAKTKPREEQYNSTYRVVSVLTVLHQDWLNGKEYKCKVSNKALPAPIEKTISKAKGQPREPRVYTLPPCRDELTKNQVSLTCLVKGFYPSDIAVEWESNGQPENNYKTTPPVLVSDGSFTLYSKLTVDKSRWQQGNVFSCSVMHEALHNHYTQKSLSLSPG
heavy: EVQLVESGGGLVKPGGSLRLSCAASGFTFSSYSMNWVRQAPGKGLEWVSSISSSSSYIYYADSVKGRFTISRDNAKNSLYLQMNSLRAEDTAVYYCARGAPIGAAAGWFDPWGQGTLVTVSSASTKGPSVFPLAPSSKSTSGGTAALGCLVKDYFPEPVTVSWNSGALTSGVHTFPAVLQSSGLYSLSSVVTVPSSSLGTQTYICNVNHKPSNTKVDKKVEPKSCDKTHTCPPCPAPELLGGPSVFLFPPKPKDTLMISRTPEVTCVVVDVSHEDPEVKFNWYVDGVEVHNAKTKPREEQYNSTYRVVSVLTVLHQDWLNGKEYKCKVSNKALPAPIEKTISKAKGQPREPQVCTLPPSRDELTENQVSLTCLVKGFYPSDIAVEWESNGQPENNYKTTPPVLDSDGSFFLYSWLTVDKSRWQQGNVFSCSVMHEALHNHYTQKSLSLSPG
light: DIQMTQSPSSVSASVGDRVTITCRASQGISSWLAWYQQKPGKAPKLLIYAASSLQSGVPSRFSGSGSGTDFTLTISSLQPEDFATYYCQQGVSFPRTFGGGTKVEIKRTVAAPSVFIFPPSDEQLKSGTASVVCLLNNFYPREAKVQWKVDNALQSGNSQESVTEQDSKDSTYSLSSTLTLSKADYEKHKVYACEVTHQGLSSPVTKSFNRGEC
B2: AB0411 F3' CEACAM5 TriNKET (bispecific antibody, human IgG1, kappa)
chain: DIQLTQSPATLSVSPGERATLSCRASQSVSSSYLAWYQQKPGQAPRLLIYGASSRATGIPDRFSGSGSGTDFTLTISRLEPEDFAVYYCQQYNNWPLTFGCGTKVEIKGGGGSGGGGSGGGGSGGGGSQVQLVQSGGGLVQPGGSLRLSCAASGFTFTSYAMSWVRQAPGKCLEWVSAISGTGDSTFYADSVKGRFTFSRDNSKNTLYLQMNSLRAEDTAVYYCAKDLGWLQYGLFDYWGQGTLVTVSSGSDKTHTCPPCPAPELLGGPSVFLFPPKPKDTLMISRTPEVTCVVVDVSHEDPEVKFNWYVDGVEVHNAKTKPREEQYNSTYRVVSVLTVLHQDWLNGKEYKCKVSNKALPAPIEKTISKAKGQPREPRVYTLPPCRDELTKNQVSLTCLVKGFYPSDIAVEWESNGQPENNYKTTPPVLVSDGSFTLYSKLTVDKSRWQQGNVFSCSVMHEALHNHYTQKSLSLSPG
heavy: B1 heavy
light: B1 light
B3: AB0621 F3' CEACAM5 TriNKET (bispecific antibody, human IgG1, kappa)
chain: DIVMTQSPDSLAVSLGERATINCKSSHSLLYGNFQNNYLAWYQQKPGQPPKLLIYWASTRESGVPDRFSGSGSGTDFTLTISSLQAEDVAVYYCQQYYSYPYTFGCGTKLEIKGGGGSGGGGSGGGGSGGGGSQVQLVQSGAEVKKPGASVKVSCKASGYTFTAYTIHWVRQAPGQCLEWMGYINPSSGYTEYNQKFKDRTTLTADTSISTAYMELSRLRSDDTAVYYCTREGGLLWFDYWGQGTLVTVSSGSDKTHTCPPCPAPELLGGPSVFLFPPKPKDTLMISRTPEVTCVVVDVSHEDPEVKFNWYVDGVEVHNAKTKPREEQYNSTYRVVSVLTVLHQDWLNGKEYKCKVSNKALPAPIEKTISKAKGQPREPRVYTLPPCRDELTKNQVSLTCLVKGFYPSDIAVEWESNGQPENNYKTTPPVLVSDGSFTLYSKLTVDKSRWQQGNVFSCSVMHEALHNHYTQKSLSLSPG
heavy: B1 heavy
light: B1 light
B4: AB0264 F3' CEACAM5 TriNKET (bispecific antibody, human IgG1, kappa)
chain: B3 chain with S210P
heavy: B1 heavy
light: B1 light

How the values were obtained:
[1] = target: T1, Human CEACAM5 (E398); assay: SPR, 37C, pH 7.4
[2] = target: T2, Human CEACAM5 I112V; assay: SPR, 37C, pH 7.4
[3] = target: T3, human CEACAM5 on cells; assay: flow cytometry, HPAF-II cells
Procedure: MKN-45 and HPAF-II human cancer cell lines were diluted into FACS buffer and 100,000 cells of each cell type were seeded per well in duplicate into 96-well plates for FACS staining. The cells were washed with PBS, incubated in a 1:2000 dilution of live/dead dye in PBS for 15 minutes, and then washed with FACS buffer. AB0264, AB0411, AB0466, and AB0621 were diluted into FACS buffer, and 50 μl of each diluted TriNKET was added to the cells. After incubation on ice for 30-120 minutes, the cells were washed with FACS buffer. Anti-human IgG-Fc secondary antibody was diluted into FACS buffer, and 50 μl was added per well for detection of the bound TriNKETs. The cells were incubated for 30-60 minutes on ice and then washed with FACS buffer. 50 μl of fixation buffer was added to each well and the cells were incubated for 10 minutes at room temperature. The cells were washed with FACS buffer and resuspended in FACS buffer for analysis with ThermoFisher Attune NxT, BD FACS Celesta SN #H66034400085, or BD FACS Celesta SN #H66034400160.
Cells of interest were identified using FSC vs. SSC plot and an appropriately shaped gate was drawn around the cells. Within the gated cells, doublet cells were removed by viewing FSC-H vs. FSC-A plot. Within the single cell population, live cells were gated. Within the live gate, the median fluorescence intensity (MFI) of each sample and the secondary-only control was calculated. Fold-over-background (FOB) was calculated as the ratio of test article MFI over secondary-only background MFI. Data were fit to a four-parameter non-linear regression curve using GraphPad Prism 7.0.

[4] = target: T4, human CEACAM8 on Ba/F3 cells; assay: flow cytometry on Ba/F3 cells expressing human CEACAM8, fold over background (FOB), 5-fold dilutions from 1600 nM
Procedure: To examine the binding specificity of the TriNKETs to CEACAM5 compared to other CEACAM family members, Ba/F3 cells were engineered to express one of human CEACAM1, CEACAM6, CEACAM8, or cynomolgus CEACAM5. CEACAM5 TriNKETs were evaluated by flow cytometry starting at 1600 nM followed by 7 5-fold dilutions.

Row | Binder | Kd [1] [nM] | kon [1] [M⁻¹ s⁻¹] | Kd [2] [nM] | kon [2] [M⁻¹ s⁻¹] | EC50 [3] [nM] | Max FOB [3] [fold over background] | binding result [4]
1 | B1 | 7.2 | 190000 | 11 | 130000 | 7.61 | 49 | no binding (tested: 1600 nM)
2 | B2 | 1.7 | 270000 | 2 | 190000 | 8.36 | 54.9 | –
3 | B3 | 17 | 100000 | 38 | 42000 | 18.1 | 24.9 | no binding (tested: 1600 nM)
4 | B4 | – | – | – | – | 20.3 | 27.9 | no binding (tested: 1600 nM)
